Earlier results on one substance are cited in article PMC4715488.

What is called Kd is the equilibrium constant for the complex coming apart.

The data set has as its target GPP130 (Homo sapiens) (UniProt O00461).
Chain of UniProt O00461 (O00461 2-696): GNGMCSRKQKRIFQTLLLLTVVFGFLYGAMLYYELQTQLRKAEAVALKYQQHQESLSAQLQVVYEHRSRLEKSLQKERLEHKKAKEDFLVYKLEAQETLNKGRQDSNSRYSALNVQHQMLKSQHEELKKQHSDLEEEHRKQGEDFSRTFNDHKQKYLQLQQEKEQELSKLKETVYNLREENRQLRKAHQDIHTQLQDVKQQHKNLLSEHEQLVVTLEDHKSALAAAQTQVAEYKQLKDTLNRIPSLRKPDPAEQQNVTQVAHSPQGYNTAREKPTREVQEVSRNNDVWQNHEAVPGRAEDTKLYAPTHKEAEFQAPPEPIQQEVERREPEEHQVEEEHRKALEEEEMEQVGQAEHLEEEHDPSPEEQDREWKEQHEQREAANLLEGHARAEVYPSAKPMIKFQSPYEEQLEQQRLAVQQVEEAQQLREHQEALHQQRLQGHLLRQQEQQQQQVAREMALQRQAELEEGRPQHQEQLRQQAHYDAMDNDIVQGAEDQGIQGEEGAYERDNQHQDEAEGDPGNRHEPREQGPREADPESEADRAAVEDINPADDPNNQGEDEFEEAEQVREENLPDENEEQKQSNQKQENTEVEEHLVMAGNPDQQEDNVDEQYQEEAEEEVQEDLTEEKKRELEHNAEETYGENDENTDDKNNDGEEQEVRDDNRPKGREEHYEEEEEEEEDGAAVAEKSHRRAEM

Consider “Shiga toxin 1 B subunit (STx1B) (from UniProt Q32GM0)”, for which the Kd is 0.15 µM.
